The labels stand for the following.
B1: C07 (antibody, human IgG1, lambda, L234A L235A, V domains shown)
VH: EVQLVESGGGLVQPGGSLKLSCAASGFTFNTYAMNWVRQASGKGLEWVGRIRSKYNNYATYYADSVKDRFTISRDDSQSTAYLQMNSLKTEDTAVYYCVRHGNFGNSYVSWFAYWGQGTLVTVSS
VL: QAVVTQEPSLTVSPGGTVTLTCRSSTGAVTTSNYANWFQQKPGQAPRGLIGGTNKRAPWTPARFSGSLLGGKAALTLSGAQPEDEAEYYCALWYSNLWVFGGGTKLTVLG
B2: B01 (antibody, human IgG1, lambda, L234A L235A, V domains shown)
VH: B1 VH with Q78K, S79N, A81L
VL: B1 VL with G48T, G51Y
B3: B03 (antibody, human IgG1, lambda, L234A L235A, V domains shown)
VH: B1 VH with Q78K, S79N, A81L
VL: B1 VL with G48T
B4: B12 (antibody, human IgG1, lambda, L234A L235A, V domains shown)
VH: B1 VH with Q78K, S79N, A81L
VL: B1 VL with F38V, G48T, G71D
B5: C08 (antibody, human IgG1, lambda, L234A L235A, V domains shown)
VH: B1 VH
VL: B1 VL with G71D
B6: B10 (antibody, human IgG1, lambda, L234A L235A, V domains shown)
VH: B1 VH with Q78K, S79N, A81L
VL: B1 VL with F38V, G48T, G51Y, G71D
B7: C01 (antibody, human IgG1, lambda, L234A L235A, V domains shown)
VH: B1 VH
VL: B1 VL with G48T, G51Y
B8: C15 (antibody, human IgG1, lambda, L234A L235A, V domains shown)
VH: B1 VH
VL: B1 VL with F38V
B9: D07 (antibody, human IgG1, lambda, L234A L235A, V domains shown)
VH: B1 VH with A81L
VL: B1 VL
B10: B14 (antibody, human IgG1, lambda, L234A L235A, V domains shown)
VH: B1 VH with Q78K, S79N, A81L
VL: B1 VL with F38V, G51Y, G71D
B11: A03 (antibody, human IgG1, lambda, L234A L235A, V domains shown)
VH: B1 VH with Q78K, S79N
VL: B1 VL with G48T
B12: B13 (antibody, human IgG1, lambda, L234A L235A, V domains shown)
VH: B1 VH with Q78K, S79N, A81L
VL: B1 VL with F38V, G51Y
B13: B11 (antibody, human IgG1, lambda, L234A L235A, V domains shown)
VH: B1 VH with Q78K, S79N, A81L
VL: B1 VL with F38V, G48T
B14: B09 (antibody, human IgG1, lambda, L234A L235A, V domains shown)
VH: B1 VH with Q78K, S79N, A81L
VL: B1 VL with F38V, G48T, G51Y
B15: B02 (antibody, human IgG1, lambda, L234A L235A, V domains shown)
VH: B1 VH with Q78K, S79N, A81L
VL: B1 VL with G48T, G51Y, G71D
B16: B04 (antibody, human IgG1, lambda, L234A L235A, V domains shown)
VH: B1 VH with Q78K, S79N, A81L
VL: B1 VL with G48T, G71D
B17: B06 (antibody, human IgG1, lambda, L234A L235A, V domains shown)
VH: B1 VH with Q78K, S79N, A81L
VL: B1 VL with G51Y, G71D
B18: B05 (antibody, human IgG1, lambda, L234A L235A, V domains shown)
VH: B1 VH with Q78K, S79N, A81L
VL: B1 VL with G51Y
B19: C16 (antibody, human IgG1, lambda, L234A L235A, V domains shown)
VH: B1 VH
VL: B1 VL with F38V, G71D
B20: Mouse human chimeric SP34 IgG1 antibody (antibody, V domains shown)
VH: B1 VH with G15K, S41P, G49A, T80I, A81L, S87N, V95M
VL: QAVVTQESALTTSPGETVTLTCRSSTGAVTTSNYANWVQEKPDHLFTGLIGGTNKRAPGVPARFSGSLIGDKAALTITGAQTEDEAIYFCALWYSNLWVFGGGTKLTVLG

Positions count from the first letter of the chain named.

In general, Kd refers to the equilibrium constant for the complex coming apart. Usually koff stands for the rate constant with which the complex falls apart. As usually defined, the kon is the rate constant with which the complex forms.

Sequence of recombinant cynomolgus monkey CD3ε/δ heterodimer (cynomolgus monkey) (Q95LI5 22-117, stated change not applied, chain 1 of 2): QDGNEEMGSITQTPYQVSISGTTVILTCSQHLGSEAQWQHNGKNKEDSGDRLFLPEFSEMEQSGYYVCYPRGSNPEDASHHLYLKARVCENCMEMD
Sequence of recombinant cynomolgus monkey CD3ε/δ heterodimer (cynomolgus monkey) (Q95LI8 22-105, stated change not applied, chain 2 of 2, further chain): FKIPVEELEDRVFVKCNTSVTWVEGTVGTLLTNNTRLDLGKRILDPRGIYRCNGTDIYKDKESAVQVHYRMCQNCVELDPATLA

In the first assay the target is recombinant human CD3ε/δ heterodimer (human) (UniProt P07766). Description: ELISA, coated CD3ε/δ. On the technique in general: ELISA stands for enzyme-linked immunosorbent assay.
Sequence of recombinant human CD3ε/δ heterodimer (human) (P07766 23-126, stated change not applied, chain 1 of 2): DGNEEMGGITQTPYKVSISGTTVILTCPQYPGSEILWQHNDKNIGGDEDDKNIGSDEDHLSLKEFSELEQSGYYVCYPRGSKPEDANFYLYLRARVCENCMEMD
Sequence of recombinant human CD3ε/δ heterodimer (human) (P04234 22-105, stated change not applied, chain 2 of 2, further chain): as the sequence (Q95LI8 22-105, stated change not applied, chain 2 of 2, further chain) above, with V5I, K15N, V20I, T32S, N33D, N34I, A64T, N74S, L83V counted along it
On to B1, for which the Absorbance (450 nm) is 0.96.

For B2, the Absorbance (450 nm) was found to be 0.097.

With B3, the Absorbance (450 nm) is 0.126.

Regarding B4, the Absorbance (450 nm) came to 0.098.

Regarding B5, the Absorbance (450 nm) worked out at 0.446.

For B6, the Absorbance (450 nm) was 0.098.

For the molecule B7, the Absorbance (450 nm) was 0.131.

On to B8, for which the Absorbance (450 nm) was determined as 2.45.

Take B9: the Absorbance (450 nm) is 1.17.

B10: the Absorbance (450 nm) worked out at 0.127.

Regarding B11, the Absorbance (450 nm) turned out to be 0.132.

B12: the Absorbance (450 nm) came to 0.169.

Regarding B13, the Absorbance (450 nm) worked out at 0.132.

As to B14, the Absorbance (450 nm) was found to be 0.096.

Turning to B15, the Absorbance (450 nm) came to 0.086.

Take B16: the Absorbance (450 nm) turned out to be 0.087.

With B17, the Absorbance (450 nm) worked out at 0.138.

As for B18, the Absorbance (450 nm) was 0.102.

For B19, the Absorbance (450 nm) worked out at 2.37.

The next assay addresses recombinant cynomolgus monkey CD3ε/δ heterodimer (cynomolgus monkey) (UniProt Q95LI5). Description: ELISA, coated CD3ε/δ.
As for B1, the Absorbance (450 nm) was determined as 2.6.

Consider B2, for which the Absorbance (450 nm) was 0.071.

For the molecule B3, the Absorbance (450 nm) was determined as 0.091.

Regarding B4, the Absorbance (450 nm) amounted to 0.072.

In the case of B5, the Absorbance (450 nm) worked out at 2.18.

On to B6, for which the Absorbance (450 nm) was found to be 0.076.

For B7, the Absorbance (450 nm) amounted to 0.075.

Regarding B8, the Absorbance (450 nm) is 2.81.

For B9, the Absorbance (450 nm) amounted to 2.39.

Consider B10, for which the Absorbance (450 nm) was 0.102.

For the molecule B11, the Absorbance (450 nm) worked out at 0.094.

As to B12, the Absorbance (450 nm) is 0.156.

For the molecule B13, the Absorbance (450 nm) was 0.107.

Take B14: the Absorbance (450 nm) worked out at 0.099.

As to B15, the Absorbance (450 nm) was 0.072.

With B16, the Absorbance (450 nm) was found to be 0.059.

B17: the Absorbance (450 nm) was 0.143.

For the molecule B18, the Absorbance (450 nm) was 0.1.

Take B19: the Absorbance (450 nm) was 2.8.

The next assay deals with recombinant human CD3ε/δ heterodimer (human) (UniProt P07766). Description: BLI (Octet), antigen on anti-Penta His sensor, antibody 50 nM. For orientation: Biolayer interferometry detects binding as a change in optical thickness at a sensor tip.
As for B1, the dissociation constant (Kd) worked out at 23 nM, the koff is 0.00349 s⁻¹ and the on-rate constant (kon) stood at 152000 M⁻¹ s⁻¹.

Consider B5, for which the Kd came to 29.4 nM, the koff was 0.00317 s⁻¹ and the kon worked out at 108000 M⁻¹ s⁻¹.

As to B8, the equilibrium dissociation constant (Kd) turned out to be 0.43 nM, the koff was 0.000162 s⁻¹ and the kon came out at 376000 M⁻¹ s⁻¹.

With B9, the Kd was determined as 19 nM, the koff amounted to 0.00214 s⁻¹ and the kon turned out to be 113000 M⁻¹ s⁻¹.

As for B20, the equilibrium dissociation constant (Kd) was 0.229 nM, the koff worked out at 6.01e-05 s⁻¹ and the on-rate (kon) was determined as 262000 M⁻¹ s⁻¹.

With B19, the Kd turned out to be 0.419 nM, the dissociation rate constant (koff) amounted to 0.000112 s⁻¹ and the association rate constant (kon) was 268000 M⁻¹ s⁻¹.

Another assay concerns the target recombinant cynomolgus monkey CD3ε/δ heterodimer (cynomolgus monkey) (UniProt Q95LI5). The description is as above.
Turning to B1, the Kd was determined as 27.5 nM, the dissociation rate constant (koff) stood at 0.00535 s⁻¹ and the kon was 194000 M⁻¹ s⁻¹.

Consider B5, for which the dissociation constant (Kd) came to 35.6 nM, the off-rate constant (koff) turned out to be 0.00589 s⁻¹ and the kon came to 166000 M⁻¹ s⁻¹.

With B8, the Kd is 0.653 nM, the koff was found to be 0.000343 s⁻¹ and the on-rate constant (kon) was 525000 M⁻¹ s⁻¹.

As to B9, the Kd amounted to 20 nM, the off-rate constant (koff) was 0.00284 s⁻¹ and the association rate constant (kon) was determined as 143000 M⁻¹ s⁻¹.

Take B20: the dissociation constant (Kd) was determined as 0.14 nM, the off-rate (koff) stood at 5.3e-05 s⁻¹ and the kon was found to be 378000 M⁻¹ s⁻¹.

For B19, the Kd was 0.888 nM, the koff came out at 0.000341 s⁻¹ and the on-rate constant (kon) stood at 384000 M⁻¹ s⁻¹.

The values above are taken from US20200317779A1.
